Source: patent EP0568622B1

Target: rat/human corticotropin releasing factor (r/h CRF), 41-residue peptide (rat/human (same molecule))
Experiment: method not stated

**Q.** With “recombinant rat CRF-binding protein (rCRF-BP), secreted by transfected COS7 cells” as the substance, how does the Kd read?
**A.** 0.1 nM
